# Test results published in PMC12416549 (2024).
# Target: T1, TNFR1 (Homo sapiens, UniProt P19438)
# T1 chain: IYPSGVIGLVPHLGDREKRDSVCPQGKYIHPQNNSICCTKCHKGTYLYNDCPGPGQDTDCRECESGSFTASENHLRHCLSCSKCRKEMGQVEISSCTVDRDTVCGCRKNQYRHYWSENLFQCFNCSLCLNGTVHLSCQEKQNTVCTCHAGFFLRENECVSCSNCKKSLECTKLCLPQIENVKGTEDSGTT
# Assay: yeast display SC50
row,Binder,apparent Kd (screen) [nM]
1,E104G (designed binder) SMEEEVEKAAKEYEKKKKEAIEKHLEKLKAKDKEAAERFLKELEEAAKEYAKDEAKTMSEEEAKRRAKKYKEKVLLSELSEEEQKEIKEAEEKLVRTILKYVEGAAK,0.446
2,E45G (designed binder) SMEEEVEKAAKEYEKKKKEAIEKHLEKLKAKDKEAAERFLKELEGAAKEYAKDEAKTMSEEEAKRRAKKYKEKVLLSELSEEEQKEIKEAEEKLVRTILKYVEEAAK,2.05
3,E82N (designed binder) SMEEEVEKAAKEYEKKKKEAIEKHLEKLKAKDKEAAERFLKELEEAAKEYAKDEAKTMSEEEAKRRAKKYKEKVLLSELSENEQKEIKEAEEKLVRTILKYVEEAAK,1.86
4,A106Y (designed binder) SMEEEVEKAAKEYEKKKKEAIEKHLEKLKAKDKEAAERFLKELEEAAKEYAKDEAKTMSEEEAKRRAKKYKEKVLLSELSEEEQKEIKEAEEKLVRTILKYVEEAYK,2.73
5,E78F (designed binder) SMEEEVEKAAKEYEKKKKEAIEKHLEKLKAKDKEAAERFLKELEEAAKEYAKDEAKTMSEEEAKRRAKKYKEKVLLSFLSEEEQKEIKEAEEKLVRTILKYVEEAAK,0.49
6,L28R (designed binder) SMEEEVEKAAKEYEKKKKEAIEKHLEKRKAKDKEAAERFLKELEEAAKEYAKDEAKTMSEEEAKRRAKKYKEKVLLSELSEEEQKEIKEAEEKLVRTILKYVEEAAK,1.86
7,E54N (designed binder) SMEEEVEKAAKEYEKKKKEAIEKHLEKLKAKDKEAAERFLKELEEAAKEYAKDNAKTMSEEEAKRRAKKYKEKVLLSELSEEEQKEIKEAEEKLVRTILKYVEEAAK,12.5
8,D32V (designed binder) SMEEEVEKAAKEYEKKKKEAIEKHLEKLKAKVKEAAERFLKELEEAAKEYAKDEAKTMSEEEAKRRAKKYKEKVLLSELSEEEQKEIKEAEEKLVRTILKYVEEAAK,7.07
9,K71F (designed binder) SMEEEVEKAAKEYEKKKKEAIEKHLEKLKAKDKEAAERFLKELEEAAKEYAKDEAKTMSEEEAKRRAKKYFEKVLLSELSEEEQKEIKEAEEKLVRTILKYVEEAAK,2.48
10,L79G (designed binder) SMEEEVEKAAKEYEKKKKEAIEKHLEKLKAKDKEAAERFLKELEEAAKEYAKDEAKTMSEEEAKRRAKKYKEKVLLSEGSEEEQKEIKEAEEKLVRTILKYVEEAAK,2.48
11,L75N (designed binder) SMEEEVEKAAKEYEKKKKEAIEKHLEKLKAKDKEAAERFLKELEEAAKEYAKDEAKTMSEEEAKRRAKKYKEKVNLSELSEEEQKEIKEAEEKLVRTILKYVEEAAK,0.869
12,K11H (designed binder) SMEEEVEKAAHEYEKKKKEAIEKHLEKLKAKDKEAAERFLKELEEAAKEYAKDEAKTMSEEEAKRRAKKYKEKVLLSELSEEEQKEIKEAEEKLVRTILKYVEEAAK,0.956
13,L40K (designed binder) SMEEEVEKAAKEYEKKKKEAIEKHLEKLKAKDKEAAERFKKELEEAAKEYAKDEAKTMSEEEAKRRAKKYKEKVLLSELSEEEQKEIKEAEEKLVRTILKYVEEAAK,0.446
14,K16R (designed binder) SMEEEVEKAAKEYEKRKKEAIEKHLEKLKAKDKEAAERFLKELEEAAKEYAKDEAKTMSEEEAKRRAKKYKEKVLLSELSEEEQKEIKEAEEKLVRTILKYVEEAAK,1.4
15,K16T (designed binder) SMEEEVEKAAKEYEKTKKEAIEKHLEKLKAKDKEAAERFLKELEEAAKEYAKDEAKTMSEEEAKRRAKKYKEKVLLSELSEEEQKEIKEAEEKLVRTILKYVEEAAK,1.05
16,E14K (designed binder) SMEEEVEKAAKEYKKKKKEAIEKHLEKLKAKDKEAAERFLKELEEAAKEYAKDEAKTMSEEEAKRRAKKYKEKVLLSELSEEEQKEIKEAEEKLVRTILKYVEEAAK,3
17,K23I (designed binder) SMEEEVEKAAKEYEKKKKEAIEIHLEKLKAKDKEAAERFLKELEEAAKEYAKDEAKTMSEEEAKRRAKKYKEKVLLSELSEEEQKEIKEAEEKLVRTILKYVEEAAK,0.539
18,K41W (designed binder) SMEEEVEKAAKEYEKKKKEAIEKHLEKLKAKDKEAAERFLWELEEAAKEYAKDEAKTMSEEEAKRRAKKYKEKVLLSELSEEEQKEIKEAEEKLVRTILKYVEEAAK,0.446
19,E14P (designed binder) SMEEEVEKAAKEYPKKKKEAIEKHLEKLKAKDKEAAERFLKELEEAAKEYAKDEAKTMSEEEAKRRAKKYKEKVLLSELSEEEQKEIKEAEEKLVRTILKYVEEAAK,11.4
20,K52P (designed binder) SMEEEVEKAAKEYEKKKKEAIEKHLEKLKAKDKEAAERFLKELEEAAKEYAPDEAKTMSEEEAKRRAKKYKEKVLLSELSEEEQKEIKEAEEKLVRTILKYVEEAAK,4.39
21,E19F (designed binder) SMEEEVEKAAKEYEKKKKFAIEKHLEKLKAKDKEAAERFLKELEEAAKEYAKDEAKTMSEEEAKRRAKKYKEKVLLSELSEEEQKEIKEAEEKLVRTILKYVEEAAK,0.446
22,F39V (designed binder) SMEEEVEKAAKEYEKKKKEAIEKHLEKLKAKDKEAAERVLKELEEAAKEYAKDEAKTMSEEEAKRRAKKYKEKVLLSELSEEEQKEIKEAEEKLVRTILKYVEEAAK,4.39
23,T97G (designed binder) SMEEEVEKAAKEYEKKKKEAIEKHLEKLKAKDKEAAERFLKELEEAAKEYAKDEAKTMSEEEAKRRAKKYKEKVLLSELSEEEQKEIKEAEEKLVRGILKYVEEAAK,1.86
24,R66S (designed binder) SMEEEVEKAAKEYEKKKKEAIEKHLEKLKAKDKEAAERFLKELEEAAKEYAKDEAKTMSEEEAKRSAKKYKEKVLLSELSEEEQKEIKEAEEKLVRTILKYVEEAAK,7.07
25,E4S (designed binder) SMESEVEKAAKEYEKKKKEAIEKHLEKLKAKDKEAAERFLKELEEAAKEYAKDEAKTMSEEEAKRRAKKYKEKVLLSELSEEEQKEIKEAEEKLVRTILKYVEEAAK,0.539
